{
  "source": "patent US20210324015A1",
  "molecular_target": "Pfs25 (Plasmodium falciparum) (UniProt P13829)",
  "sequence (P13829 17-196)": "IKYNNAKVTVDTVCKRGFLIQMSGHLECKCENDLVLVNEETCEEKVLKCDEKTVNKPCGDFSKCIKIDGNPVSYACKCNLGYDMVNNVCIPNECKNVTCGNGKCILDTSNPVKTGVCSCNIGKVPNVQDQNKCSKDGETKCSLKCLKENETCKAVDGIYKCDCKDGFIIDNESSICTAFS",
  "assay": "cell-based or functional assay",
  "data": [
    {"substance": "anti-Pfs25 mAb 4B7 (antibody)", "values": [
      {"measurement": "% inhibition estimate (standard membrane feeding assay, SMFA)", "result": 93.8, "unit": "%"}
    ]}
  ]
}
